Test results taken from patent US20190056395.

Target: T1, MSP-MS library tetradecapeptide KWLIHPTFSYnRWP
T1 chain: KWLIHPTFSYNRWP

B1: recombinant mature Sap5 (secreted aspartyl protease 5) from Candida albicans, expressed in Pichia pastoris (protein)
chain: GPVAVTLHNEAITYTADITVGSDNQKLNVIVDTGSSDLWIPDSNVICIPKWRGDKGDFCKSAGSYSPASSRTSQNLNTRFDIKYGDGSYAKGKLYKDTVGIGGVSVRDQLFANVWSTSARKGILGIGFQSGEATEFDYDNLPISLRNQGIIGKAAYSLYLNSAEASTGQIIFGGIDKAKYSGSLVDLPITSEKKLTVGLRSVNVRGRNVDANTNVLLDSGTTISYFTRSIVRNILYAIGAQMKFDSAGNKVYVADCKTSGTIDFQFGNNLKISVPVSEFLFQTYYTSGKPFPKCEVRIRESEDNILGDNFLRSAYVVYNLDDKKISMAPVKYTSESDIVAIN
kcat/Km (mass spectrometry-based cleavage time course): 4.4×10^4 M^-1 s^-1 (Sap5)

B2: recombinant mature Sap6 (secreted aspartyl protease 6) from Candida albicans, expressed in Pichia pastoris (protein)
chain: GPVAVKLDNEIITYSADITVGSNNQKLSVIVDTGSSDLWIPDSKAICIPKWRGDCGDFCKNNGSYSPAASSTSKNLNTRFEIKYADGSYAKGNLYQDTVGIGGASVKNQLFANVWSTSAHKGILGIGFQTNEATRTPYDNLPISLKKQGIIAKNAYSLFLNSPEASSGQIIFGGIDKAKYSGSLVELPITSDRTLSVGLRSVNVMGRNVNVNAGVLLDSGTTISYFTPSIARSIIYALGGQVHFDSAGNKAYVADCKTSGTVDFQFDKNLKISVPASEFLYQLYYTNGKPYPKCEIRVRESEDNILGDNFMRSAYIVYDLDDKKISMAQVKYTSESNIVAIN
kcat/Km (mass spectrometry-based cleavage time course): 2.0×10^5 M^-1 s^-1 (Sap6)
